For assay [1], the target named is HLA-A*02:03. The assay can be described thus: IEDB peptide-MHC binding, purified MHC/competitive/radioactivity; filed as Kd, often an IC50 or EC50 that approximates it; ≥ and ≤ were set here for values at or beyond the usual limits of such assays.
Assay [2] has as its target HLA-A*02:02. Described as above.
Assay [3] deals with HLA-A*02:06. The description is as above.
The target in assay [4] is HLA-A*03:01. Put plainly: IEDB peptide-MHC binding, purified MHC/direct/fluorescence; filed as Kd, often an IC50 or EC50 that approximates it; ≥ and ≤ were set here for values at or beyond the usual limits of such assays.
Assay [5] deals with HLA-A*02:01. The assay is described as above.
Assay [6] has as its target HLA-A*69:01. The description is as above.
The target of assay [7] is HLA-B*58:01. The description is as above. To be noted: source organism: Mycobacterium tuberculosis str. Haarlem.
Where [8] appears, read: source organism: Vaccinia virus WR.
[9] abbreviates: source organism: Dengue virus 1 Brazil/97-11/1997.
Setting [10] is: source organism: Yersinia pestis Antiqua.
[11] abbreviates: source organism: SARS coronavirus Tor2.
The mark [12] stands for this setting: source organism: Marburg virus - Musoke, Kenya, 1980.
Where [13] appears, read: source organism: Dengue virus 4 Philippines/H241/1956.
Where [14] appears, read: source organism: Bacillus anthracis.
[15] abbreviates: source organism: Bacillus cytotoxicus.

This note sets out measurements from the Immune Epitope Database (IEDB).

NINIEVKLFI: the Kd (in general, the equilibrium constant for the complex coming apart) is 2050 nM in assay [1] (setting [8]), 12500 nM in assay [2] (setting [8]) and 2320 nM in assay [3] (setting [8]).
With GLFDINVIGL, the results for the Kd in assay [1] (setting [8]), in assay [2] (setting [8]) and in assay [3] (setting [8]) were 1.43 nM, 0.163 nM and 240 nM, respectively.
For AISYCRAFI, in that order: 149 nM, 17.2 nM and 146 nM.
Consider NQAAILMGL, for which the Kd in assay [3] (setting [9]) stood at 12.5 nM.
Consider FVYHPDRLK, for which, in assay [4] (source organism: Escherichia coli O157:H7), the dissociation constant (Kd) is 46.7 nM.
As to NTKSDNIINI, the Kd is 1080 nM in assay [1] (setting [8]), at least 30800 nM in assay [2] (setting [8]) and at least 69800 nM in assay [3] (setting [8]).
For IAVANCVRNL, in that order: 467 nM, 57.1 nM and 9120 nM.
For SIENKHQRRL, in that order: at least 21100 nM, 17000 nM and at least 53900 nM.
For IASSMKGENV, in that order: 3240 nM, 751 nM and 311 nM.
In the case of SQGRGWFLL, the results for the Kd in assay [5] (setting [10]) and in assay [6] (setting [10]) were 284 nM and at least 20000 nM, respectively.
Take VISVIFYFI: the dissociation constant (Kd) in assay [1] (setting [8]) is 729 nM; in assay [2] (setting [8]), 1.4 nM; in assay [3] (setting [8]), 497 nM.
Take ILSNKLLYAA: the Kd in assay [1] (setting [8]) came out at 1110 nM; in assay [2] (setting [8]) it was 8.09 nM; in assay [3] (setting [8]), 150 nM.
For PAHLINKLL, in that order: 6310 nM, 6690 nM and at least 42300 nM.
For ITPTIEDDKI, in that order: 4200 nM, 18700 nM and 1500 nM.
In the case of ITAIYVFCI, the Kd was 89.2 nM in assay [1] (setting [11]), 28.7 nM in assay [2] (setting [11]) and 132 nM in assay [3] (setting [11]).
Regarding ITVGMLIYSM, the Kd was determined as 6110 nM in assay [1] (setting [8]), 47.4 nM in assay [2] (setting [8]) and 97.1 nM in assay [3] (setting [8]).
VMNPLGLNV: the figures for the Kd in assay [5] (setting [12]) and in assay [6] (setting [12]) were 320 nM and 780 nM, respectively.
In the case of ILIDTSAWV, the Kd in assay [6] (source organism: Mycobacterium tuberculosis) came to 429 nM.
Turning to VLEKKVCAIT, the Kd in assay [1] (setting [8]) came out at 1240 nM; in assay [2] (setting [8]) it was 590 nM; in assay [3] (setting [8]) it was 1680 nM.
For TQVKELGIA, in that order: 52.2 nM, 7220 nM and 55.6 nM.
For NINFNNSSII, in that order: 13300 nM, 6640 nM and at least 30100 nM.
For LLFMILTVA, the Kd in assay [1] (setting [9]) was 29.3 nM.
Take DTCLLAISA: the values for the Kd in assay [1] (setting [8]), in assay [2] (setting [8]) and in assay [3] (setting [8]) were 6450 nM, 4330 nM and at least 25200 nM, respectively.
In the case of LMYKGLPWNV, the Kd was 5.34 nM in assay [1] (setting [11]), 1.75 nM in assay [2] (setting [11]) and 37.1 nM in assay [3] (setting [11]).
Take QLCDHRLMSA: in assay [1] (source organism: Dengue virus 3 Martinique/1243/1999), the Kd came out at 54.2 nM.
On to TIKESLLKET, for which the Kd in assay [1] (setting [8]) was found to be 149 nM; in assay [2] (setting [8]), 1580 nM; in assay [3] (setting [8]), 87.2 nM.
FLSGKGLGKT: in assay [1] (setting [9]), the dissociation constant Kd stood at 32 nM.
GVSGNIVSSV: the Kd in assay [1] (setting [13]) was 30.6 nM.
Turning to IVQSVLRDI, the Kd was 101 nM in assay [1] (setting [8]), at least 77800 nM in assay [2] (setting [8]) and 1310 nM in assay [3] (setting [8]).
Turning to EQDGITYYL, the Kd in assay [5] (setting [14]) is at least 20000 nM; in assay [6] (setting [14]) it was 12.5 nM.
With TTENAAYQV, the Kd was at least 51300 nM in assay [1] (setting [8]), at least 77800 nM in assay [2] (setting [8]) and 442 nM in assay [3] (setting [8]).
For NLYKVYNGI, in that order: 61.7 nM, 408 nM and 817 nM.
In the case of TVDFTDCRT, the Kd was at least 27000 nM in assay [1] (setting [8]), 9680 nM in assay [2] (setting [8]) and 339 nM in assay [3] (setting [8]).
For NASKFVYVSV, in that order: 8.57 nM, 4550 nM and 823 nM.
The sequence KTQEPPQVA had a Kd in assay [5] (source organism: Haemophilus influenzae) of 7070 nM.
For ILGIIITVGM, the Kd in assay [1] (setting [8]) was 265 nM; in assay [2] (setting [8]) it was 288 nM; in assay [3] (setting [8]) it was 4710 nM.
For QMYRKFSRCT, in that order: 2270 nM, at least 25700 nM and 14700 nM.
On to RLFARTGLE, for which the dissociation constant (Kd) in assay [4] (source organism: Burkholderia ambifaria AMMD) stood at 748 nM.
With WVMDTLNGI, the Kd in assay [1] (setting [8]) came to 1.01 nM; in assay [2] (setting [8]) it was 9.78 nM; in assay [3] (setting [8]) it was 0.731 nM.
As for LLFLNDMGKV, the Kd in assay [1] (setting [13]) stood at 6.83 nM.
As for KGGTGGWLW, the Kd in assay [7] turned out to be 43.3 nM.
As to ALSGFYYVQ, the Kd was determined as 1400 nM in assay [5] (setting [15]) and 2360 nM in assay [6] (setting [15]).
